Data: publication PMC4820698

Experiments:
[1] = biological target: MBP-5-HT3A-ICD fusion protein (cytoplasmic domain of the mouse 5-HT3A receptor fused to the C-terminus of maltose binding protein) (mouse); test: cross-linking; glutaraldehyde by vapor diffusion at 30 °C, 0.5 μg purified protein in buffer B; resolved by SDS-PAGE with Western blot (anti-MBP) or denaturing capillary gel electrophoresis
[2] = biological target: MBP-5-HT3A-ICD fusion protein (cytoplasmic domain of the mouse 5-HT3A receptor fused to the C-terminus of maltose binding protein) (mouse); test: SEC; Superdex 200 10/300 GL, 20 mM HEPES, 150 mM NaCl, 0.02% NaN3, pH 7.4; weight from calibration with standard proteins
[3] = biological target: MBP-5-HT3A-ICD fusion protein (cytoplasmic domain of the mouse 5-HT3A receptor fused to the C-terminus of maltose binding protein) (mouse); test: SEC-MALS; Superdex 200 HR 10/300 GL, 20 mM HEPES, 150 mM NaCl, 5 mM maltose, 0.01% NaN3, pH 7.4, ambient temperature, 0.1-1.0 mg protein loaded

Measured: stoichiometry N

MBP-5-HT3A-ICD fusion protein (cytoplasmic domain of the mouse 5-HT3A receptor fused to the C-terminus of maltose binding protein) (domain or fragment)
5: all assays above
